Measurements reported in PMC7736470.

Target: Neuropeptide Y (Homo sapiens), P01303
Details: remark: other sources report otherwise

B1: Neuropeptide Y receptor type 2, P49146 (protein)
chain: MGPIGAEADENQTVEEMKVEQYGPQTTPRGELVPDPEPELIDSTKLIEVQVVLILAYCSIILLGVIGNSLVIHVVIKFKSMRTVTNFFIANLAVADLLVNTLCLPFTLTYTLMGEWKMGPVLCHLVPYAQGLAVQVSTITLTVIALDRHRCIVYHLESKISKRISFLIIGLAWGISALLASPLAIFREYSLIEIIPDFEIVACTEKWPGEEKSIYGTVYSLSSLLILYVLPLGIISFSYTRIWSKLKNHVSPGAANDHYHQRRQKTTKMLVCVVVVFAVSWLPLHAFQLAVDIDSQVLDLKEYKLIFTVFHIIAMCSTFANPLLYGWMNSNYRKAFLSAFRCEQRLDAIHSEVSVTFKAKKNLEVRKNSGPNDSFTEATNV
  Kd: 35 nM
